One variant from IntAct's records for PubMed 9653157 can be followed below.

B1: Cell division control protein 18 (Schizosaccharomyces pombe (strain ATCC 38366 / 972)), P41411 (parent)
chain: MCETPIGCHTPRRCNRFIDSAALIDCTNKTNQREHSPSFSIEIPTTPSRKRTLASSHFQTPTKRIKYELGELQEEKTDLYPNFPAQLKENKKPKLPTTPQTPKTPKRTIQIVTPKSLNRTCNPVPFATRLLQSTPHRQLFPPTPSTPSTPSYNSTAKLSLRKSYRSAGVVGRENEKSIVESFFRQHLDANAGGALYVSGAPGTGKTVLLHNVLDHVVSDYPKVNVCYINCMTINEPKAIFEKIHSKIVKEEILENEDHHINFQCELESHFTQSANELYNPVIIVLDEMDHLIAREQQVLYTLFEWPSRPTSRLILVGIANALDMTDRFLPRLRTKHITPKLLSFTPYTAQEISTIIKARLKTAATTSEKNNPFTPIKSISEVSDDSINVVSQHADETPFIHPAAIELCARKVAASSGDLRKALDICRHAIELAEREWKAQHDNTLSSVDIPRASIAHVVRATSAMSQSASARLKNLGLQQKAILCTLVVCEKTSLSVADVFEKYSSLCLRDRLIYPLTSSEFCDVANSLETLAIIRLRTKQRNGKPQDRIISLLVPEMDVITAVGDIGTLKRFFDRR
partner: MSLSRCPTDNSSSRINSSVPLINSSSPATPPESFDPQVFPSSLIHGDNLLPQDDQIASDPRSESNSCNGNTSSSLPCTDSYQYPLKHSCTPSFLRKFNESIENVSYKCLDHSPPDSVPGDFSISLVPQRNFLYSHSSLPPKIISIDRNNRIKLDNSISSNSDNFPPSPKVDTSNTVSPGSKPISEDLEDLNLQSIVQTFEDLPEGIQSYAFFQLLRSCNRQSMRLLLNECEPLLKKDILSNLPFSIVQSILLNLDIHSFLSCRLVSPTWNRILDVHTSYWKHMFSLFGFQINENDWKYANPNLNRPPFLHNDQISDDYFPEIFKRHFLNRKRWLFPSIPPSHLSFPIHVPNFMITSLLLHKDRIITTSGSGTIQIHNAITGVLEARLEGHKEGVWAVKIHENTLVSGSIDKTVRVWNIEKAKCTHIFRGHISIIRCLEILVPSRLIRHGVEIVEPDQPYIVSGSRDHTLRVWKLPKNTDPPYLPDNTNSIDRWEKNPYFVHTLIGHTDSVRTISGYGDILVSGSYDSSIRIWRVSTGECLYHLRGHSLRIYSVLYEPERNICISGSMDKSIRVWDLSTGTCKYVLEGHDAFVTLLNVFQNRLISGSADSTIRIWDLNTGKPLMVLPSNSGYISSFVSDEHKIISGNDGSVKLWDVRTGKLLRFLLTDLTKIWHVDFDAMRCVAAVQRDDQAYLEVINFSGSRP

Variants of B1 are the subject of the assay. To be noted: with pop2_schpo pop2, O14170.
As for T4A;T10A;T46A;T60A;T101A;T104A, the “effect of a mutation on the interaction” value is “disrupting interaction”.
